Target: T1, CTNI quality control recombinant antigen (human, UniProt P19429 1-210, limits assumed)
T1 construct: Recombinant antigen produced by the applicant; also called CTNI quality control recombinant protein (antigen produced by the company); cardiac troponin I
Assay: BLI, antibody on AMC sensor, cTnI in solution
Protocol: With an AMC sensor, the purified antibody was diluted to 10 μg/ml with PBST, and CTNI quality control recombinant protein (antigen produced by the company) was gradient diluted with PBST to 769.2 nmol/ml, 384.6 nmol/ml, 192.3 nmol/ml, 96.2 nmol/ml, 48.1 nmol/ml, 24 nmol/ml, 12 nmol/ml, and 0 nmol/ml.

T1 sequence (P19429 whole entry): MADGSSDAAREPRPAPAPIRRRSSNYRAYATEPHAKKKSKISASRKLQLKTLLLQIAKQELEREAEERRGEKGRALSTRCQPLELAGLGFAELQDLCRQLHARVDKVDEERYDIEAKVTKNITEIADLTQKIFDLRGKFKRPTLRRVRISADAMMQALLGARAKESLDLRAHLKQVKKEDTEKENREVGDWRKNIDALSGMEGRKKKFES

Kd [nM] | koff [s⁻¹] | kon [M⁻¹ s⁻¹] | Binder
8.44 | 0.000255 | 30200 | Mutation 1-34 (antibody, assembled FR/CDR/constant) heavy: EVQMVESGGGLLKPGGSLKLSCAASGFTYSNYAMSWVRQTPEKRLEWVATISSGGSYSFYPDSVKGRFTISRDNAKNTLYLQMLSLRSEDTAMYYCARRDNYPGSSFMDYWGQGSSVTVSSAKTTPPSVYPLAPGSAAQTNSMVTLGCLVKGYFPEPVTVTWNSGSLSSGVHTFPAVLQSDLYTLSSSVTVPSSTWPSQTVTCNVAHPASSTKVDKKIVPRDCGCKPCICTVPEVSSVFIFPPKPKDVLTITLTPKVTCVVVDISKDDPEVQFSWFVDDVEVHTAQTKPREEQFNSTFRSVSELPIMHQDWLNGKEFKCRVNSAAFPAPIEKTISKTKGRPKAPQVYTIPPPKEQMAKDKVSLTCMITNFFPEDITVEWQWNGQPAENYKNTQPIMDTDGSYFVYSKLNVQKSNWEAGNTFTCSVLHEGLHNHHTEKSLSHSPG light: DIQMTQTSSSLSASLGDRVTISCRASQDITNYLNWYQQKPDGTIKLLIYYTSRIHSGVSSRFSGSGSGTDYSLTISNLEQEDIATYFCQQGNTIPLTFDTGTKLELKRADAAPTVSIFPPSSEQLTSGGASVVCFLNNFYPKDINVKWKIDGSERQNGVLNSWTDQDSKDSTYSMSSTLTLTKDEYERHNSYTCEATHKTSTSPIVKSFNRNEC
6.25 | 0.000509 | 81400 | Mutation 1-39 (antibody, assembled FR/CDR/constant) heavy: EVQMVESGGGLLKPGGSLKLSCAASGFTFSNYAMSWVRQTPEKRLEWVATISSGGSYSYYPDSVKGRFTISRDNAKNTLYLQMLSLRSEDTAMYYCARRDNYPGSSFMDYWGQGSSVTVSSAKTTPPSVYPLAPGSAAQTNSMVTLGCLVKGYFPEPVTVTWNSGSLSSGVHTFPAVLQSDLYTLSSSVTVPSSTWPSQTVTCNVAHPASSTKVDKKIVPRDCGCKPCICTVPEVSSVFIFPPKPKDVLTITLTPKVTCVVVDISKDDPEVQFSWFVDDVEVHTAQTKPREEQFNSTFRSVSELPIMHQDWLNGKEFKCRVNSAAFPAPIEKTISKTKGRPKAPQVYTIPPPKEQMAKDKVSLTCMITNFFPEDITVEWQWNGQPAENYKNTQPIMDTDGSYFVYSKLNVQKSNWEAGNTFTCSVLHEGLHNHHTEKSLSHSPG light: DIQMTQTSSSLSASLGDRVTISCRASQDITNYLNWYQQKPDGTIKLLIYYTSRIHSGVSSRFSGSGSGTDYSLTISNLEQEDIATYFCQQGHTIPLTFDTGTKLELKRADAAPTVSIFPPSSEQLTSGGASVVCFLNNFYPKDINVKWKIDGSERQNGVLNSWTDQDSKDSTYSMSSTLTLTKDEYERHNSYTCEATHKTSTSPIVKSFNRNEC
5.25 | 0.000161 | 30700 | Mutation 1-35 (antibody, assembled FR/CDR/constant) heavy: EVQMVESGGGLLKPGGSLKLSCAASGFTFSNYAMSWVRQTPEKRLEWVATISSGGSYSYYPDSVKGRFTISRDNAKNTLYLQMLSLRSEDTAMYYCARRDNYFGSTFMDYWGQGSSVTVSSAKTTPPSVYPLAPGSAAQTNSMVTLGCLVKGYFPEPVTVTWNSGSLSSGVHTFPAVLQSDLYTLSSSVTVPSSTWPSQTVTCNVAHPASSTKVDKKIVPRDCGCKPCICTVPEVSSVFIFPPKPKDVLTITLTPKVTCVVVDISKDDPEVQFSWFVDDVEVHTAQTKPREEQFNSTFRSVSELPIMHQDWLNGKEFKCRVNSAAFPAPIEKTISKTKGRPKAPQVYTIPPPKEQMAKDKVSLTCMITNFFPEDITVEWQWNGQPAENYKNTQPIMDTDGSYFVYSKLNVQKSNWEAGNTFTCSVLHEGLHNHHTEKSLSHSPG light: DIQMTQTSSSLSASLGDRVTISCRASQDITNYLNWYQQKPDGTIKLLIYYTSRLHSGVSSRFSGSGSGTDYSLTISNLEQEDIATYFCQQGHTLPLTFDTGTKLELKRADAAPTVSIFPPSSEQLTSGGASVVCFLNNFYPKDINVKWKIDGSERQNGVLNSWTDQDSKDSTYSMSSTLTLTKDEYERHNSYTCEATHKTSTSPIVKSFNRNEC
9.24 | 0.000774 | 83800 | Mutation 1-41 (antibody, assembled FR/CDR/constant) heavy: EVQMVESGGGLLKPGGSLKLSCAASGFTFSNYAMSWVRQTPEKRLEWVATISSGGSYSFYPDSVKGRFTISRDNAKNTLYLQMLSLRSEDTAMYYCARRDNYFGSSFMDYWGQGSSVTVSSAKTTPPSVYPLAPGSAAQTNSMVTLGCLVKGYFPEPVTVTWNSGSLSSGVHTFPAVLQSDLYTLSSSVTVPSSTWPSQTVTCNVAHPASSTKVDKKIVPRDCGCKPCICTVPEVSSVFIFPPKPKDVLTITLTPKVTCVVVDISKDDPEVQFSWFVDDVEVHTAQTKPREEQFNSTFRSVSELPIMHQDWLNGKEFKCRVNSAAFPAPIEKTISKTKGRPKAPQVYTIPPPKEQMAKDKVSLTCMITNFFPEDITVEWQWNGQPAENYKNTQPIMDTDGSYFVYSKLNVQKSNWEAGNTFTCSVLHEGLHNHHTEKSLSHSPG light: DIQMTQTSSSLSASLGDRVTISCRASQEITNYLNWYQQKPDGTIKLLIYYTSRLHSGVSSRFSGSGSGTDYSLTISNLEQEDIATYFCQQGNTLPLTFDTGTKLELKRADAAPTVSIFPPSSEQLTSGGASVVCFLNNFYPKDINVKWKIDGSERQNGVLNSWTDQDSKDSTYSMSSTLTLTKDEYERHNSYTCEATHKTSTSPIVKSFNRNEC
4.2 | 0.000299 | 71000 | Mutation 1-37 (antibody, assembled FR/CDR/constant) heavy: EVQMVESGGGLLKPGGSLKLSCAASGFTFSNYAMSWVRQTPEKRLEWVATISSGGSYSFYPDSVKGRFTISRDNAKNTLYLQMLSLRSEDTAMYYCARRDNYYGSSFMDYWGQGSSVTVSSAKTTPPSVYPLAPGSAAQTNSMVTLGCLVKGYFPEPVTVTWNSGSLSSGVHTFPAVLQSDLYTLSSSVTVPSSTWPSQTVTCNVAHPASSTKVDKKIVPRDCGCKPCICTVPEVSSVFIFPPKPKDVLTITLTPKVTCVVVDISKDDPEVQFSWFVDDVEVHTAQTKPREEQFNSTFRSVSELPIMHQDWLNGKEFKCRVNSAAFPAPIEKTISKTKGRPKAPQVYTIPPPKEQMAKDKVSLTCMITNFFPEDITVEWQWNGQPAENYKNTQPIMDTDGSYFVYSKLNVQKSNWEAGNTFTCSVLHEGLHNHHTEKSLSHSPG light: DIQMTQTSSSLSASLGDRVTISCRASQDITNYLNWYQQKPDGTIKLLIYYTSRLHSGVSSRFSGSGSGTDYSLTISNLEQEDIATYFCQQGHTLPLTFDTGTKLELKRADAAPTVSIFPPSSEQLTSGGASVVCFLNNFYPKDINVKWKIDGSERQNGVLNSWTDQDSKDSTYSMSSTLTLTKDEYERHNSYTCEATHKTSTSPIVKSFNRNEC
7.74 | 0.00057 | 73700 | Mutation 1-38 (antibody, assembled FR/CDR/constant) heavy: EVQMVESGGGLLKPGGSLKLSCAASGFTYSNYAMSWVRQTPEKRLEWVATISSGGSYSFYPDSVKGRFTISRDNAKNTLYLQMLSLRSEDTAMYYCARRDNYPGSTFMDYWGQGSSVTVSSAKTTPPSVYPLAPGSAAQTNSMVTLGCLVKGYFPEPVTVTWNSGSLSSGVHTFPAVLQSDLYTLSSSVTVPSSTWPSQTVTCNVAHPASSTKVDKKIVPRDCGCKPCICTVPEVSSVFIFPPKPKDVLTITLTPKVTCVVVDISKDDPEVQFSWFVDDVEVHTAQTKPREEQFNSTFRSVSELPIMHQDWLNGKEFKCRVNSAAFPAPIEKTISKTKGRPKAPQVYTIPPPKEQMAKDKVSLTCMITNFFPEDITVEWQWNGQPAENYKNTQPIMDTDGSYFVYSKLNVQKSNWEAGNTFTCSVLHEGLHNHHTEKSLSHSPG light: DIQMTQTSSSLSASLGDRVTISCRASQDITNYLNWYQQKPDGTIKLLIYYTSRLHSGVSSRFSGSGSGTDYSLTISNLEQEDIATYFCQQGNTIPLTFDTGTKLELKRADAAPTVSIFPPSSEQLTSGGASVVCFLNNFYPKDINVKWKIDGSERQNGVLNSWTDQDSKDSTYSMSSTLTLTKDEYERHNSYTCEATHKTSTSPIVKSFNRNEC
9.27 | 0.000774 | 83500 | Mutation 1-36 (antibody, assembled FR/CDR/constant) heavy: EVQMVESGGGLLKPGGSLKLSCAASGFTYSNYAMSWVRQTPEKRLEWVATISSGGSYSYYPDSVKGRFTISRDNAKNTLYLQMLSLRSEDTAMYYCARRDNYYGSTFMDYWGQGSSVTVSSAKTTPPSVYPLAPGSAAQTNSMVTLGCLVKGYFPEPVTVTWNSGSLSSGVHTFPAVLQSDLYTLSSSVTVPSSTWPSQTVTCNVAHPASSTKVDKKIVPRDCGCKPCICTVPEVSSVFIFPPKPKDVLTITLTPKVTCVVVDISKDDPEVQFSWFVDDVEVHTAQTKPREEQFNSTFRSVSELPIMHQDWLNGKEFKCRVNSAAFPAPIEKTISKTKGRPKAPQVYTIPPPKEQMAKDKVSLTCMITNFFPEDITVEWQWNGQPAENYKNTQPIMDTDGSYFVYSKLNVQKSNWEAGNTFTCSVLHEGLHNHHTEKSLSHSPG light: DIQMTQTSSSLSASLGDRVTISCRASQEITNYLNWYQQKPDGTIKLLIYYTSRIHSGVSSRFSGSGSGTDYSLTISNLEQEDIATYFCQQGNTLPLTFDTGTKLELKRADAAPTVSIFPPSSEQLTSGGASVVCFLNNFYPKDINVKWKIDGSERQNGVLNSWTDQDSKDSTYSMSSTLTLTKDEYERHNSYTCEATHKTSTSPIVKSFNRNEC
3.12 | 0.000262 | 83900 | Mutation 1-40 (antibody, assembled FR/CDR/constant; Same printed sites as Mutation 1-4) heavy: EVQMVESGGGLLKPGGSLKLSCAASGFTYSNYAMSWVRQTPEKRLEWVATISSGGSYSYYPDSVKGRFTISRDNAKNTLYLQMLSLRSEDTAMYYCARRDNYFGSTFMDYWGQGSSVTVSSAKTTPPSVYPLAPGSAAQTNSMVTLGCLVKGYFPEPVTVTWNSGSLSSGVHTFPAVLQSDLYTLSSSVTVPSSTWPSQTVTCNVAHPASSTKVDKKIVPRDCGCKPCICTVPEVSSVFIFPPKPKDVLTITLTPKVTCVVVDISKDDPEVQFSWFVDDVEVHTAQTKPREEQFNSTFRSVSELPIMHQDWLNGKEFKCRVNSAAFPAPIEKTISKTKGRPKAPQVYTIPPPKEQMAKDKVSLTCMITNFFPEDITVEWQWNGQPAENYKNTQPIMDTDGSYFVYSKLNVQKSNWEAGNTFTCSVLHEGLHNHHTEKSLSHSPG light: DIQMTQTSSSLSASLGDRVTISCRASQEITNYLNWYQQKPDGTIKLLIYYTSRIHSGVSSRFSGSGSGTDYSLTISNLEQEDIATYFCQQGNTLPLTFDTGTKLELKRADAAPTVSIFPPSSEQLTSGGASVVCFLNNFYPKDINVKWKIDGSERQNGVLNSWTDQDSKDSTYSMSSTLTLTKDEYERHNSYTCEATHKTSTSPIVKSFNRNEC
